Laboratory results taken from patent US20220281949A1 (UNIVERSITY HEALTH NETWORK, published 2022).

Target: T1, soluble CD4 (sCD4): human CD4 extracellular domain fused with a 6×His tag via a GS linker (human, UniProt P01730 26-396)
T1 construct: Produced in HEK293T supernatant; for staining the monomer was dimerized with a PE-labeled anti-6×His mAb (AD1.1.10); also called dimerized sCD4
Experiment: flow cytometry: K562 cells expressing the class II molecule stained with sCD4 dimerized by PE anti-His mAb

B1: wild-type DR1 (DRA1*01:01/DRB1*01:01) on K562 cells (peptide-MHC, human)
MHC II alpha: not shown
MHC II beta: not shown
notes: whole, on cells; Stably transduced in class II-deficient K562 cells
B1: no binding.
